This is an account of results in publication PMC7805551.

This assay has as its target chicken MHF complex (MHF1/MHF2 heterotetramer) (chicken) (UniProt E1BSW7). Put plainly: native gel or EMSA; 2 mg/ml FANCM–MHF or MHF mixed 1:1 with 10 mM Tris–HCl pH 8 or 10–60% MPD, 20°C for 60 min; 6% polyacrylamide TBE gel, 0.5x TBE, 4°C; bands cut out and analysed by SDS–PAGE; at 30% MPD a smeared band at the position of MHF. A general note: A gel shift assay detects complexes by their altered migration in electrophoresis.

In turn, “chicken FANCM (MHF interaction region, amino acids 660–804) (from UniProt A0A1D5PRR9 660-804) (domain or fragment)” came in with a percent of MHF without FANCM of 3%.
